Reference: article PMC10791742 (Nature Communications, 2024)
Residue numbers refer to the chain shown, from its start.

B1: E02(Fab) (Fab, V domains shown)
VH: QVQLLESGGGLVQPGRSLRLSCAASGFTFSSYGLHWVRQAPGKGLEWVAVISYDGSNKYYADSVKGRFTISRDNSKNTLYLQMNSLRAEDTAVYYCASTLQQLDAFDIWGQGTLVTVSS
VL: NFMLTQPHSVSESPGKTVTISCTRSSGSIASNYVQWYQQRPGTSPTIMIYEDNQRPSGVPDRFSGAIDSSSNSASLTISGLKTEDEADYYCQSYDSSSVVFGGGTKVTVL
notes: also called TPL0039_05_E02
B2: E02(LALA + YTE) human IgG1 (antibody, V domains shown)
VH: B1 VH
VL: B1 VL
notes: also called TPL0039_05_E02
B3: TPL0039_05_B12 IgG1 (LALA + YTE) (antibody, V domains shown)
VH: EVQLVESGGGVVQPGRSLRLSCAASGFTFSSYGMHWVRQAPGKGLEWVAVISYDGSNKYYADSVKGRFTISRDNSKNTLYLQMNSLRAEDTAVYYCAGWTEGDAFDIWGQGTLVTVSS
VL: B1 VL with T43S, S44A, T46S, I47T, M48V, Q54R, A66S, S70A, V107I
notes: also called B12(LALA + YTE); copies: 2 + 2
B4: TPL0039_05_E02 IgG1 (LALA + YTE) (antibody, V domains shown)
VH: B1 VH
VL: B1 VL
notes: also called E02(LALA + YTE); copies: 2 + 2
B5: TPL0039_05_E02 Fab (Fab, V domains shown)
VH: B1 VH
VL: B1 VL
notes: also called Fab E02; source: Expi293F, transient expression, purified (anti-CH1 resin, desalted into PBS)
B6: TPL0039_05_B04 IgG1 (LALA + YTE) (antibody, V domains shown)
VH: B3 VH with V5L, G98R, W99V, T100G, G102N, D103E, L113M
VL: B1 VL with S31R, T43S, S44A, I47T, M48V, A66S, S98T, V107L
notes: also called B04(LALA + YTE); copies: 2 + 2
B7: TPL0039_05_F04 IgG1 (LALA + YTE) (antibody, V domains shown)
VH: QVQLVESGGGVVQPGRSPRLSCAASGFTFSSYGMHWVRQAPGKGLEWVAVISYDGSNKYYADSVKGRFTISRDNSKNTLYLQMNSLRAEDTAVYYCAKDLEYSSSSWGQGTLVTVSS
VL: B1 VL with Y37F, T43S, I47T, M48V, N53D, A66S, D88T, Y90F, S98T
notes: also called F04(LALA + YTE); copies: 2 + 2
B8: TPL0039_05_G08 IgG1 (LALA + YTE) (antibody, V domains shown)
VH: EVQLVESGGGVVQPGRSLRLSCAASGFTFSSYGMHWVRQAPGKGLEWVAVISYDGSNKYYADSVKGRFTISRDNSKNTLYLQMNSLRAEDTAVYYCARTNYDSGDAFDIWGQGTLVTVSS
VL: B1 VL with T43S, I47T, M48V, A66S, S98T, V107L
notes: also called G08(LALA + YTE); copies: 2 + 2
B9: TPL0039_05_A03 IgG1 (LALA + YTE) (antibody, V domains shown)
VH: B1 VH with L5V, V12A, Q13K, A24V, L34M, L114M
VL: B1 VL with V18I, T43S, S44V, I47P, M48V, N53D, Q54R, A66S, V107I
notes: also called A03(LALA + YTE); copies: 2 + 2

What follows are binders tested against T1, myotoxin II from Bothrops asper (Bothrops asper, UniProt P24605) (assay: BLI; […]) biosensors; Fab or IgG at 0, 1, 10 and 100 nM; 600 s association, 600 s dissociation; […]; 1:1 binding model, […]). Conditions: both partners purified.
T1 construct: also called Mt; Lys49 PLA2-like toxin
T1 sequence (P24605 17-137): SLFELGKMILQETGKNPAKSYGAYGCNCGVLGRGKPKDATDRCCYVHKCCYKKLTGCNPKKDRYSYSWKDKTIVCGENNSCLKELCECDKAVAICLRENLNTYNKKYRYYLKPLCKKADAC

Binder | Kd
B1 | 2400 pM
B2 | < 1 pM

Each binder was assayed against T2, myotoxin II from Bothrops asper (Bothrops asper, UniProt P24605) (assay: BLI; […]) biosensors ([…] (0, 1, 10, 100 nM; […]). Conditions: both partners purified.
T2 construct: also called Mt; M2; source: purified from Bothrops asper venom (CM-Sephadex C25, RP-HPLC), biotinylated
T2 sequence (P24605 17-137): as above

Binder | Kd | koff | kon
B3 | < 1 pM | < 1e-07 s⁻¹ | 685000 M⁻¹ s⁻¹
B4 |  | < 1e-07 s⁻¹ | 491000 M⁻¹ s⁻¹
B5 |  | 0.000872 s⁻¹ | 360000 M⁻¹ s⁻¹
B6 | 75.8 pM | 6.53e-05 s⁻¹ | 861000 M⁻¹ s⁻¹
B7 | 18.1 pM | 1.31e-05 s⁻¹ | 723000 M⁻¹ s⁻¹
B8 | < 1 pM | < 1e-07 s⁻¹ | 245000 M⁻¹ s⁻¹
B9 | < 1 pM | < 1e-07 s⁻¹ | 648000 M⁻¹ s⁻¹
